The target of the assay is protein A (UniProt P38507). The experiment in a line: spectral-domain phase-sensitive interferometry (SD-PSI), label-free; protein A (0.5 mg/ml) adsorbed on a dopamine layer on a glass chip (0.17 or 0.20 mm) and blocked with protein-free blocking solution; IgG solution (20 ug/ml mouse IgG; gradient of 10, 20, 30, 50 ug/ml IgG) passed through the flow chamber; PBS washes; reference path without protein A.

Our source for the phase change and thickness variation values is article PMC8983844.

In turn, mouse IgG (antibody) gave a phase change at 20 ug/ml IgG of 0.04 rad, a thickness variation at 10 ug/ml IgG of 1.86 nm, a thickness variation at 20 ug/ml IgG of 3.76 nm and a thickness variation at 30 ug/ml IgG of 5.45 nm. The thickness variation at 50 ug/ml IgG amounted to 10.1 nm.
